Source: paper doi:10.1101/2025.11.26.690709
Changes are numbered by the printed parent chain. Names and notes keep the numbering of the source.

Columns and labels:
[1] = molecular target: CHIP Y230Cfs*9, recombinant (human) (UniProt Q9UNE7); test: mass photometry
[2] = molecular target: CHIP-myc ΔStartCodon (c.3G>A) (human) (UniProt Q9UNE7); test: native gel or EMSA
[3] = molecular target: T1, CHIP-myc wild type (human), Q9UNE7; test: native gel or EMSA; details: remark: other sources report otherwise
T1 chain: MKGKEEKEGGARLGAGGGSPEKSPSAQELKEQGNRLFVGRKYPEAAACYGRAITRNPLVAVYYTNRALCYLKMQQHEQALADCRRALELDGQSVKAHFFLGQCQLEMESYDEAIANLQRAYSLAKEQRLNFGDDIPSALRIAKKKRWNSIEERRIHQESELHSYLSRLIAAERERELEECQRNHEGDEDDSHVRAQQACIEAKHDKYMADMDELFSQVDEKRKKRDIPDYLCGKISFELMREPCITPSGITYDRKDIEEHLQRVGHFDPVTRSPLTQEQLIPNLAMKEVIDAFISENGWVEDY

[4] = molecular target: T2, CHIP-myc K30A (human), Q9UNE7; test: native gel or EMSA; details: remark: other sources report otherwise
T2 chain: T1 chain with K30A

CHIP Y230Cfs*9, recombinant (from UniProt Q9UNE7-1 1-303) (natural protein)
percent of the protein as dimers [1]: 80%
stoichiometry N [1]: 2

CHIP-myc ΔStartCodon (c.3G>A) (from UniProt Q9UNE7-1 1-303) (natural protein)
stoichiometry N [2]: 2

B1: CHIP-myc wild type, Q9UNE7-1 1-303 (natural protein)
chain: T1 chain
stoichiometry N [3]: 2

B2: CHIP-myc K30A, Q9UNE7-1 1-303 (natural protein)
chain: T1 chain with K30A
stoichiometry N [4]: 2
